± gives the uncertainty stated by the source.

This data set can be described thus: amyloid nucleation score (Sup35N fusion, yeast selection) (log enrichment); library NNK3; higher = more nucleation; inactive = no reads after selection. An outline of the steps: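 Growth for 7 days at 30°C on medium lacking adenine and uracil followed a 24-hour induction with 100 μM copper sulfate of psi-negative yeast expressing peptides of 20 random codons fused to Sup35N. Input and output plasmid inserts were sequenced with Illumina, and sequences with under 100 input reads were excluded. Nucleation score is the DiMSum log enrichment of output over input reads, centred on the mode score of non-aggregating sequences.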
For the substance NIGYSLWRHYTNSRG, the amyloid nucleation score entry was “inactive”.

For EWFEKIFIRLTGHRTKFYNS, the amyloid nucleation score result is “inactive”.

Regarding RLSHTMCRVLCHWVMSYSVS, the amyloid nucleation score entry was “inactive”.

For MSSFLTPAGRFSRYFTFVCF, the amyloid nucleation score entry was “inactive”.

For the substance NSIQCKRTVCILSGSTVMRE, the amyloid nucleation score entry was “inactive”.

As for FCRPNSWI, the amyloid nucleation score stood at 0.53 ± 0.38.

In the case of LQSCKATPRLCFEATLGRGV, the amyloid nucleation score is -0.992 ± 2.5.

Turning to AESIR, the amyloid nucleation score result was “inactive”.

In the case of TPLARFFTCPHIYYLSPGHS, the amyloid nucleation score result was “inactive”.

Regarding FERDVFDQYEVVQWGARGDG, the amyloid nucleation score entry was “inactive”.

As for GRLINYSILKMVTVWFYLL, the amyloid nucleation score result is “inactive”.

As to RSQALFLNWTCDCGGYINQI, the amyloid nucleation score came to 1.01 ± 0.21.

On to MPMCT, for which the amyloid nucleation score result is “inactive”.

Consider SWIVRLWCVMWNNLFVFIRN, for which the amyloid nucleation score result was “inactive”.

Turning to FIGMDIIKYLS, the amyloid nucleation score was 0.631 ± 0.16.

Regarding PTLLTMRQEQRHAKNFRSNL, the amyloid nucleation score result is “inactive”.

With NFLVRTPGRNERG, the amyloid nucleation score entry is “inactive”.

On to RRRGNKAFHPLQ, for which the amyloid nucleation score entry was “inactive”.

The substance EWKWQSKHTITYFLHHCSEH yielded an amyloid nucleation score of 0.534 ± 0.15.

As for ICYTMST, the amyloid nucleation score entry is “inactive”.

For LLLPWCYFRRKMGRR, the amyloid nucleation score result is “inactive”.

Consider LFYGHVNLASYRVSNRSKTR, for which the amyloid nucleation score result was “inactive”.

Consider RRFTHRIEVRTSVAIS, for which the amyloid nucleation score result was “inactive”.

In turn, FCEMHYRLDN yielded an amyloid nucleation score of 0.424 ± 0.17.

RGRYWWFYYLAFICMKWYSG: the amyloid nucleation score entry is “inactive”.

CGYCVFPFLNGITVGGRFGH returned an amyloid nucleation score of 1.29 ± 0.11.

Turning to LRNSHGDDNVIRLVNNCNSV, the amyloid nucleation score result is “inactive”.

As to QRIESGPLDY, the amyloid nucleation score result was “inactive”.

Turning to SYRLSYLYPSTHHYLLNCLL, the amyloid nucleation score entry was “inactive”.

Turning to NNLNQRYYTRHLQSGNLFCS, the amyloid nucleation score result is “inactive”.

In turn, TFLELSIMYGRVTCNSLY registered an amyloid nucleation score of -0.259 ± 0.8.

For the substance YLIEYTSSNKPMAPLSDDTQ, the amyloid nucleation score entry is “inactive”.

Regarding VAIIAYQWSIPSMAGPVNRR, the amyloid nucleation score stood at 0.652 ± 0.28.

SNAKWGNISVGSRDYRTIRS: the amyloid nucleation score was determined as 1.48 ± 0.083.

Turning to TLLLAMNDVTSRLL, the amyloid nucleation score result is “inactive”.

Regarding AFIRFTVFNIGVKKYSCL, the amyloid nucleation score stood at 1.55 ± 0.065.

For SDLMRKKMDGMDRNEGCPIR, the amyloid nucleation score result was “inactive”.

In the case of GMCWVDFVNNTASCVWFPLC, the amyloid nucleation score result is “inactive”.

Take LSCHETCLVISGLCMLMMRL: the amyloid nucleation score result was “inactive”.

Substance IDLNMQMELHGWHRVCWGCY came in with an amyloid nucleation score of 0.657 ± 0.22.

Take GCKLIEWDVLIVDPMPARGR: the amyloid nucleation score entry was “inactive”.

Regarding GRLIPREGT, the amyloid nucleation score result was “inactive”.

Substance HSSVDIQRFCIFYINQCVPK registered an amyloid nucleation score of 2.45 ± 0.072.

As to YLIAIG, the amyloid nucleation score result was “inactive”.

On to RWIFIT, for which the amyloid nucleation score result is “inactive”.

NFLFMCSPYYLWIFDPGCYL yielded an amyloid nucleation score of 2.8 ± 0.074.

Take QVYGINLGSTGNEARYAVRD: the amyloid nucleation score entry was “inactive”.

WYERGG: the amyloid nucleation score entry is “inactive”.

Take WISNTRCVLFVGN: the amyloid nucleation score result was “inactive”.

WHSWAFGTGCGSRTFEG: the amyloid nucleation score is 0.526 ± 0.17.

On to LVFGLLLS, for which the amyloid nucleation score result is “inactive”.

Take NYYFT: the amyloid nucleation score entry is “inactive”.

In the case of FYCLHSMLKMGEDVRAMNLD, the amyloid nucleation score entry is “inactive”.

With KYSMTK, the amyloid nucleation score entry was “inactive”.

The substance IHSDLTVSCNIYWKSY yielded an amyloid nucleation score of 0.922 ± 0.14.

Take VVGNVTGY: the amyloid nucleation score result was “inactive”.

On to SSLLANRYVWLDKLRHWHWR, for which the amyloid nucleation score entry is “inactive”.

For ILILFYLRFHNIRRYTCTFR, the amyloid nucleation score result is “inactive”.

For SSVEHWPQNVFNRYFLYGVY, the amyloid nucleation score result is “inactive”.

Take FSLRVGMKVHISKIRLGCCK: the amyloid nucleation score entry was “inactive”.

In the case of CFANSSYLIGTCLRCACNDR, the amyloid nucleation score stood at 2.37 ± 0.072.

For FGRGCHRSMTIGDLVFLLIT, the amyloid nucleation score result is “inactive”.

Take VWCLFTSLSS: the amyloid nucleation score result is “inactive”.

For YCFSFAISCNDMRLFFLVNV, the amyloid nucleation score result is “inactive”.

Consider GRISAKSVVTSWRGVGPYSV, for which the amyloid nucleation score result is “inactive”.

The substance LNTYQHFCIFMLSYALLSGH displayed an amyloid nucleation score of -1.49 ± 2.5.

In turn, DELTNLPCY yielded an amyloid nucleation score of -0.405 ± 0.79.

As to NGSSFCAKCVNVW, the amyloid nucleation score was -0.418 ± 0.98.

On to FSLDVDDGVFS, for which the amyloid nucleation score entry is “inactive”.

Consider LSAAFYDMETIGWISGSWVN, for which the amyloid nucleation score entry was “inactive”.

With NCMFPGYLYNVDITLMDV, the amyloid nucleation score result is “inactive”.

In the case of FALNL, the amyloid nucleation score entry is “inactive”.

Take RAFHYNSCKSVSAVLDLNVL: the amyloid nucleation score is -0.094 ± 0.31.

Turning to YSDKDSLGSGNSFFSFSEKW, the amyloid nucleation score entry was “inactive”.

In the case of AYMYCVMTGSWVVKIRPGTR, the amyloid nucleation score result is “inactive”.

With TFSVYADETSKRTVFTVMIW, the amyloid nucleation score entry was “inactive”.

As for YSVTAHPLDHTNPRGNYPDH, the amyloid nucleation score entry is “inactive”.

Regarding PKIRSF, the amyloid nucleation score result was “inactive”.

Turning to GLVWTW, the amyloid nucleation score is -0.01 ± 0.48.

For the substance RMTMRRSSWQVEGITSLRIL, the amyloid nucleation score result was “inactive”.

LHDNRHYGNLTEAL: the amyloid nucleation score entry was “inactive”.

Turning to SSGRSSPQWG, the amyloid nucleation score entry is “inactive”.

For the substance SVARNSHYATLHKELQHVMY, the amyloid nucleation score result was “inactive”.

As to TRVDGTYKYRLFDLCDAIKF, the amyloid nucleation score entry was “inactive”.

As to YSKRAHVFYES, the amyloid nucleation score is -0.06 ± 0.36.

LLCYWSLA: the amyloid nucleation score result was “inactive”.

Regarding GLDTAR, the amyloid nucleation score entry was “inactive”.

CEGMKCYVVLTRLRLKKTRT: the amyloid nucleation score entry was “inactive”.

As to WRRWQSRCGSLLRYSKETLN, the amyloid nucleation score result was “inactive”.

As to RCYVCRTMRACMVLAAKLEP, the amyloid nucleation score result is “inactive”.

Consider CFLCFTPHSFHVCSI, for which the amyloid nucleation score entry is “inactive”.

Take TVYFNYRVWHTMARKQKLSS: the amyloid nucleation score result was “inactive”.

On to VRSTFNCITLRTLAIRSFYH, for which the amyloid nucleation score result is “inactive”.

Turning to GQPTICKDGYSMLLNEFSRS, the amyloid nucleation score result is “inactive”.

For MVNMTI, the amyloid nucleation score result is “inactive”.

For the substance SDKRPWGFRNRDIYVIVGHR, the amyloid nucleation score entry was “inactive”.

Take NQSCFMSAGNGSF: the amyloid nucleation score entry is “inactive”.

Regarding FYYSWSVFCICMYR, the amyloid nucleation score entry is “inactive”.

Take TVSGQLIT: the amyloid nucleation score result was “inactive”.

Consider LFLDWALIFLV, for which the amyloid nucleation score result is “inactive”.

For the substance CVLAFVVVLLGWGHSSGAGG, the amyloid nucleation score came to 0.825 ± 0.2.

As for FLYRDDDHSYVSESDLNSCS, the amyloid nucleation score result is “inactive”.

With INLHFDITDWANNDLENKGH, the amyloid nucleation score result was “inactive”.

Regarding YSEFPPTSKQ, the amyloid nucleation score result is “inactive”.

In the case of DADSMRWNSPGLCH, the amyloid nucleation score entry is “inactive”.

For the substance VLTSYGRNRH, the amyloid nucleation score entry is “inactive”.

IEFLFMYTWWAVLNSGSK came in with an amyloid nucleation score of 0.999 ± 0.2.

Regarding YKKVLLDSFYSDTWSSQGSR, the amyloid nucleation score result is “inactive”.

As to VFPYFELCVFLPSYFREAET, the amyloid nucleation score entry is “inactive”.

Regarding LCRLLVSTWNSASSFFCRKL, the amyloid nucleation score result was “inactive”.

For the substance ERDFLF, the amyloid nucleation score result is “inactive”.

For the substance MYVPIPVYFQF, the amyloid nucleation score result was “inactive”.

Take LHYMYTYFTTKVLSSRIGGV: the amyloid nucleation score result is “inactive”.

For SYQLCACK, the amyloid nucleation score result was “inactive”.

MRPITGVMVLNVSNRQITLF showed an amyloid nucleation score of 1.72 ± 0.088.

Substance VLSFLPCGLIPIISVALWCC showed an amyloid nucleation score of 1.17 ± 0.099.

Substance ILMPKTVVTVYISNMCDYSQ gave an amyloid nucleation score of 2.58 ± 0.071.

Take WVSRNTVRGKVMSRCWVVQY: the amyloid nucleation score entry was “inactive”.

As to NNVGPAFHDAC, the amyloid nucleation score result was “inactive”.

For the substance DSLKSKFSKVLGPLNRACFY, the amyloid nucleation score result was “inactive”.

VRCVVGITVFGIHERVTSER: the amyloid nucleation score came to 0.169 ± 0.61.

Take NMTVGHILFLMMTCAMYVNN: the amyloid nucleation score entry was “inactive”.

Turning to QYISIENHPEACMQGSTCYS, the amyloid nucleation score entry was “inactive”.

NDKLWQWMGNISVRCFFINV: the amyloid nucleation score entry was “inactive”.

Substance ILFNENITKMSLFNCDKFIC displayed an amyloid nucleation score of 1.1 ± 0.15.

DMYPFPVCR: the amyloid nucleation score result is “inactive”.

As for NIGNHYCRYNGWDMLNRGEL, the amyloid nucleation score result is “inactive”.

NLSVIMLVVCMLTINNIYMS showed an amyloid nucleation score of 1.29 ± 0.11.

Take IGFAGSVM: the amyloid nucleation score entry is “inactive”.

On to ISGTFACQNSTFFSGYREAI, for which the amyloid nucleation score entry is “inactive”.

As to ANGRN, the amyloid nucleation score entry was “inactive”.

The substance MVTLKQYLYSG came in with an amyloid nucleation score of 1.05 ± 0.2.

Take GMRSLDMRWAGVMYVHRRRL: the amyloid nucleation score result is “inactive”.

The values are drawn from the supplement of paper PMC12042874.
